Among the data in publication PMC2668763 are localisation_or_trafficking values, retold here.

Read-outs that look alike come from different tables or passages of the source.

For “hCdc14A: Cdc14A phosphorylation mutants (S351,363A and S351,363D)”, the localisation_or_trafficking entry runs as follows: (phosphorylation at S351) “no change”; (phosphorylation at S363) “no change”.
